Results as given in patent publication KR20230010676A (dated 2023).

What was measured:
Test in all cases: cell-based or functional assay
[1] = target: SARS-CoV-2 S A520S (SARS-CoV-2, UniProt P0DTC2 14-1273)
[2] = target: SARS-CoV-2 S K417N (SARS-CoV-2, UniProt P0DTC2 14-1273)
[3] = target: SARS-CoV-2 S N501T (SARS-CoV-2, UniProt P0DTC2 14-1273)
[4] = target: SARS-CoV-2 S S477N (SARS-CoV-2, UniProt P0DTC2 14-1273)
[5] = target: SARS-CoV-2 S T478K (SARS-CoV-2, UniProt P0DTC2 14-1273)
[6] = target: SARS-CoV-2 S L452R (SARS-CoV-2, UniProt P0DTC2 14-1273)
[7] = target: SARS-CoV-2 S Y453F (SARS-CoV-2, UniProt P0DTC2 14-1273)
[8] = target: SARS-CoV-2 S E484K (SARS-CoV-2, UniProt P0DTC2 14-1273)
[9] = target: SARS-CoV-2 S A522S (SARS-CoV-2, UniProt P0DTC2 14-1273)
[10] = target: SARS-CoV-2 S S494P (SARS-CoV-2, UniProt P0DTC2 14-1273)
[11] = target: SARS-CoV-2 S N439K (SARS-CoV-2, UniProt P0DTC2 14-1273)
[12] = target: SARS-CoV-2 S N501Y (SARS-CoV-2, UniProt P0DTC2 14-1273)
[13] = target: SARS-CoV-2 S P384L (SARS-CoV-2, UniProt P0DTC2 14-1273)

Measured: S2E12의 중화 감소 (배)

B1: S2E12 (antibody, V domains shown)
VH: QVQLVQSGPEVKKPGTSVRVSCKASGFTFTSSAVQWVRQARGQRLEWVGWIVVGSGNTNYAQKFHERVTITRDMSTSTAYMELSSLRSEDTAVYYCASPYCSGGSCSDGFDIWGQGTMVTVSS
VL: DIVLTQTPGTLSLSPGERATLSCRASQSVSSSYLAWYQQKPGQAPRLLIYGASSRATGIPDRFSGSGSGTDFTLTISRLEPEDFAVYYCQQYVGLTGWTFGQGTKVEIK
notes: also called S2E12 WT; S2E12 wt
< 3 배: all assays above
